Data published in the supplement of paper PMC9942255.
Values joined by “and” are separate entries in the source; they are usually repeats but may differ in a detail not shown here. Identical values can stand only once.

Test system: Bacillus subtilis DB104 (SP-AmyQ fusion secretion)
Test: AmyQ secretion efficiency, weighted average sort bin (1 = best secretion, 10 = worst) (bin number (weighted average, 1-10)); higher = lower secretion efficiency
Procedure, shortened: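 The secretion score was taken as the read-frequency-weighted mean bin number, normalised to beads per bin, with low-abundance sequences excluded. Bins came from large-particle flow cytometry sorting of occupied alginate beads (~65 nL, about 0.3 cells each, with fluorescein-starch) into 10 equally populated groups by green/red fluorescence ratio after about 13 h at room temperature and nile red staining. The cells were a B. subtilis DB104 library with mature AmyQ fused to designed signal peptides, integrated at amyE, and each bin's amplicons were Illumina-sequenced.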

Sequence	AmyQ secretion efficiency
MKRVCLTALLSVLLVAGSVPFHAEAKKP	2.1
MKRIRIPMTLALGAALTIAPLSFASCEEN	4.65
MRHKIITFILAVVVIIIIGNMIGGGGGSEATSK	5.87
MKRKKLLVSLRVWMVFLMNWVTPDRKTAAAAVY	7.43
MKKKTLSLFVGLMLLIGLLFSGSLPYNPNAAEASSS [wt_amyM]	3.81
MKKKLAAGLTASAIVGTTLVVVFAEAATI	6.57
MKKVLMAFIICLSLILSVLAAPPSGCKAESV	1.89
MKRKLLSSLAISALSLGLLVSAPTASFGAES	3.96
MAIIIAIIAAVIVIAALITFEVRNASPG	5.68
MKKKRKKGGTGSAIVGTTLVVTPAEAATI	7.88
MKKRFRRRKKRAFILFAGAIAIPS	6.13
MTKWIVLFLVLIAAAISIFVYVSTGSEK	2.48
MRKKRGYRCGMAASLTLGSLLPAGYASAKED	6.63
MKKTTTKYFMFGLVMGFSQFQPSTVFAADK	3.56
MFNRLFRVCFLAALIMAFTLPNSVYHQKP	6.83
MRPVFPLILSAVLFLSCFFGARQTEASWSKR	4.13
MKMKSGMEQAVSVLLLLSRLPVQASLTSE	7.57 and 7.03
MKWMCKRCCRRKRLAGGAAQAEAV	7.06
MLKKKWMVGLLAGCLAAGGFSYNFFATEN	6.27
MMIKQCVICLSLLVFGTEEDAHAEET	3.44
MRKTIFAFLTGLMMFGTITAASKSPD	6
MLKKIARRKCKKRVGSLLFFTAPASAHVS	7.33
MRKKRNVITCVMAASLTLGSLLPAGYASAKED	3.03
MKLAKRVSALTPSTTLAITAKKKEL	7.78

Sequence	AmyQ secretion efficiency
MKLWMRKTLVVLFTIVTFGLVSPPALMADKP	1.9
MKQFAITLSVLCALILLVPTLLVIPFQHNKEAMASV	6.87
MKKKKRRIVSILFMFGLVMGFSQFQPSTVFAADK	3.29
MSLMIVFMTLPLLIVCLAFSSFSASARAASE	4.54
MFNRLFRVCFLAALIMAFTLPNSVYAKKR	3.37
MTMLRKIIGWILLLCIIPLFAFTVIHSGKEV	6.94
MTMLSMIIGWILLLCIIPLFAFTVIASGKEV	7.31
MKKRLIGFLVLVPALIMSGITLIERNKK	6.81
MTMKLKWLSFLLGFIILLFLFKYQFSNNDS	7.21
MNKLKRLSMLTVMIASVFIFSSHVLAAQY	2.99
MKKRKRRNFKRFIAAFLVLALMISLVPADVLAEED	3.75
MPYLMMVLLLLVTGLFMSLFAVTATASAQTG	1.47
MKRLLSTLLIGIMLLTFAPSAFGKQD	1.17
MKIRKILLSSALSFGMLISAVPALAAKK	1.84
MMKKGLLAGALTATVLFGTCAVDVPGIISPKTIEAASQ	4.02
MLKKKWMVGLLAGCLAAGGFSYNAFADEE	6.94
MKRTWNVCLTALLSVLLVAGSVPFHGEAKKP	2.79
MKKIAGVLTVAAAAMTAKMYATAKGN	7.41
MKKRFFGPIILAFILFAGTASAIAIPS	5.82
MKKWIYIMSFMIVVLVLSIAGIGGFSVHAASS	4
MLTKRLLTIYIMLLGLIAWFPGAAQGEEK	2.56
MKLRKSTKYQSYSLGLLVSASPAFATSP	6.69
MSSTITFVLTMCFLGLILFVPTALADNS	2.16
MKKLVLCVSILAVILSGVALVQLS	5.7

Sequence	AmyQ secretion efficiency
MKNMSCKLVVSVTLFFSFLTIGPLAPVGVSPVAHAQNS	1.75
MKRIRIPMTLALGAALTIAPLSFASSEEN	4.71
MPIKKKVMMCLAVTLVFGSMIFITLTNSGGFKE	6.04
MKKTIMSFVAVAALSTTAFRRRKKKHASAKEI	6.72
MKVPKTMLLSTAAGLLLSLDEDSVSAHYV	6.39
MKKKLAAGLTASAIVGTTLVVTPCEAATI	1.75
MKRLLSTLLIGIMLLTFAPSPAATVFPVAFAKQD	1.66
MKKRLIGFLVLVPALIMSGITLIEPNKK	7.44
MKKWMITIAMLILAGIALFVFISPLKRHKT	7.32
MLTKRLLTIYIMLLGLIAWFPGALQAEEK	2.66
MSKLLAAGIIGLLTVSIASPSFAAEK	3.64
MKKSQYFIVFICFFVLFSVHPIAAAGADS	3.85
MTKKTSIILITSAWFLPLVCVLLISGWLAPAASASAQTT	2.35
MRPVFPLILSAVLFLSCFTGARQTEASASKR	3.07
MKKRRGRGSVLVPALIMSGITLIEANKK	7.89
MSSMTCKLVVSVTLFFSFLTIGPLAHAQNS	1.57
MKRMIVRMTKKRRIVCLAFSSFSASARAASE	5.68
MLKKKWMVGLLAGCLAAGGFSYNSPPFFFGAAFATEN	5.86
MKRLCLWFTVFSLFLVLLPGKALGKKR	2.36
MKKLLAAGIIGLLTVSIASPSFARRK	6.83
MKKVLMAFIICLSLILQGGKGPPGGAKAESV	5.23
MRSYIKVLTMCFLGLILFVPTALYDNS	8.55
MKRFILVLSFLSIIVAYPIQTNASPE	2.06
MKRTWNVCLTALLSVLLVAPFHAEAKKP	4.3

Sequence	AmyQ secretion efficiency
MKKRLIQVMIMFTLLLRKRRSADAADS	6.79
MTKKAWFLPLVCVLLISGWLAPAASASAQTD	1.97
MRMLWRSLALCGLALPCAQAAEP	6.75
MRKKRVITCVMAASLTLGSLLPAGYVTAKED	2.51
MLCVMMLLFSAIALFLVASFPVSAQAKDQ	7.1
MKKRLIAPMLLSAASLAFFAEEESAQAAAY	2.27
MLKKKWMVRRRKGCLAAGGFSYNAFATEN	7.58
MKKRLIAPMLLSAASLAFFAMSGSAQVAAY	5.79
MGGGFSILIMMTGLLFGLTSPAFAAEK	3.63
MKKWRGGSQSGAIAIVLFMYTKGEAKAAGM	6.49
MHLIRAAGAVCLAVVLIAGCRKKKRKRHRAEGENT	7.2
MKRCKRRRLIVCSLAAILLLIPSVSFAADS	3.97
MSTMIVRMTLPLLIVCLAFSSFSASARAASE	2.3
MKLSVKIKKKRRKAAAAMTAKMYATAKGN	7.56
MFNRLFRVCRRAALIMAFTLPNSVYAQKP	4.23
MTMLRKIIGWILLLCIIPLFAFTVIASPKEV	7.22
MKLRKVLTGSVLSLGLLDDEEDDAFATSP	7.86
MKKTIMSFVAVAALSTTAFFAIASAKEI	6.16
MKNMSCKLVVSVTLFFSFLDSTPGAHAQNS	1.96
MKKIMSARRRRVLLTIFCFSPQASAAYD	7.27
MKRMIVRMTLPLLIVCLAFSSFSASARVASE	4.86
MRKKLKWLSFLLGFIILLFLFKYQPSNNDS	7.17
